In the supplement of paper PMC12042874:
± gives the uncertainty stated by the source.

Assay: amyloid nucleation score (Sup35N fusion, yeast selection) (log enrichment); library NNK2; higher = more nucleation; inactive = no reads after selection
Method in brief: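 On medium lacking adenine and uracil, psi-negative yeast expressing peptides of 20 random codons fused to Sup35N were grown 7 days at 30°C after a 24-hour induction with 100 μM copper sulfate. Illumina sequencing of input and output plasmid inserts gave the reads, and sequences under 100 input reads were excluded. The nucleation score is the DiMSum log enrichment of output over input reads, centred on the mode score of non-aggregating sequences.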

Row | Substance | amyloid nucleation score
1 | STSFRASSGDKYEFDVKHLV | 0.195 ± 0.76
2 | STSIPCSEHDFVCYHMVCGF | -0.652 ± 0.37
3 | STVVLSHRCLLSCE | -0.656 ± 1.1
4 | STWVWMSFCVNLLDPHACGS | 7.542 ± 0.03
5 | STWWWYLCIQARLMCMRFLA | -0.357 ± 0.23
6 | STYRSASMVQVGRLVHGNQW | 5.38 ± 0.063
7 | STYSIIYV | 0.831 ± 0.17
8 | SVAWVLLWV | 0.636 ± 0.81
9 | SVCLSSYFHCKRSVMWFYKV | -0.363 ± 0.74
10 | SVFIGVVPNESQCYV | 0.069 ± 0.39
11 | SVFMFCVSEL | -0.049 ± 0.63
12 | SVGGR | -0.288 ± 0.8
13 | SVIASWKSCLSLLVFQH | -0.695 ± 0.64
14 | SVKQLTPD | -0.319 ± 0.6
15 | SVKWKTRDEKS | -0.711 ± 0.54
16 | SVLAGDLNLRLVFYCMFMYH | 1.61 ± 0.31
17 | SVLGTKVRVYRSGWTLRIFE | -0.456 ± 0.37
18 | SVLHPLTSKWNGKKWV | inactive
19 | SVLTLTSIIYLGSCKFLNFM | 6.241 ± 0.032
20 | SVNASGT | -0.114 ± 0.8
21 | SVNWEDKDLGVGSNLEIASL | -0.889 ± 1
22 | SVPDFDRWAFTGRVQTYADC | -0.614 ± 0.79
23 | SVRLNFEFRDYDCRQVLSIF | -0.825 ± 1.1
24 | SVRVA | 1.66 ± 0.26
25 | SVSLNCSPLFFYFRRYKVSR | 6.052 ± 0.038
26 | SVSVEYWCSLWDRRDKGSSQ | 0.619 ± 0.81

Row | Substance | amyloid nucleation score
27 | SVSYTNVLYHIKVDEFFNEC | 1.3 ± 0.25
28 | SVTVHFENVVDIRYVCVTMG | 0.341 ± 0.65
29 | SVVGFTPQKL | -0.049 ± 0.34
30 | SVYAGVLM | -0.555 ± 0.63
31 | SVYMPSVCNKLFFRGCGYGF | 3.04 ± 0.096
32 | SWEKQ | inactive
33 | SWLFRYYVERVNDVRG | 0.191 ± 0.65
34 | SWVRVTSPSIATFSATYCVL | 0.619 ± 0.81
35 | SWYILILGFRGKIIYPFRLG | -1.03 ± 0.76
36 | SWYVGLCMYVPWYERRANGH | 11.04 ± 0.067
37 | SYDDGRFGVGCCFIEGYRI | -1.41 ± 1
38 | SYDFSSINRDKTSSSRSLPR | -0.474 ± 1
39 | SYENTSV | 0.376 ± 0.66
40 | SYFGDFERFSFSCDHER | -0.471 ± 0.61
41 | SYFHRWRATNFRTHKEAC | -1.02 ± 0.34
42 | SYGNDNDGTWWS | 0.676 ± 0.57
43 | SYHAYRG | -0.064 ± 0.37
44 | SYLFIDDTVDCQLKERRYPN | -0.763 ± 0.62
45 | SYNLETFIFLWKESG | inactive
46 | SYNTRFIASSCSGSY | -1.06 ± 0.76
47 | SYPYFMLRTTLNTLKTWFWM | -0.403 ± 1
48 | SYTWFSYIWYSLVFLRD | -0.088 ± 0.8
49 | SYYFQAFDYKFLSMVIDAYG | 7.085 ± 0.043
50 | SYYINFISVRILDLNKFNVQ | 5.03 ± 0.11
51 | SYYTL | inactive
52 | SYYVLRASTELYGFHVFFLR | -0.017 ± 1

Row | Substance | amyloid nucleation score
53 | TAALRVILGCMYNIWQMWHR | 1.06 ± 0.57
54 | TALATDTSFRRSRRQTNQIF | 0.706 ± 0.54
55 | TAMFPHVRYSDTSYPAKRAV | -0.947 ± 0.41
56 | TCEYVVN | -0.659 ± 0.54
57 | TCFEEFLQKFMYCATFMKKM | -0.403 ± 0.78
58 | TCFVC | 5.746 ± 0.052
59 | TCIVSRRSCTCNRSQSGYRR | 1.08 ± 0.22
60 | TCLMVVE | 0.539 ± 0.66
61 | TCLTFRFI | inactive
62 | TCRHRLHVSFVYDVLRQIVT | 0.043 ± 0.21
63 | TCTNLSCTGWKNGVCVCM | 8.536 ± 0.057
64 | TCVKASNRG | -0.608 ± 0.55
65 | TCVLKVFVL | -1.43 ± 1.1
66 | TCVVSTYLINIQKNVASFER | 6.816 ± 0.041
67 | TDALANSNRPSKFQVH | -0.059 ± 0.37
68 | TDECWIGYFNSSAI | -0.053 ± 1
69 | TDGELDSPQ | 0.165 ± 0.37
70 | TDLCCRLSIQLINHVYHSCL | 0.351 ± 0.74
71 | TDLSLWNTILRVAG | 0.05 ± 0.31
72 | TDRLRFIYSGGVEFFVPVLL | inactive
73 | TDVRGDTSRGLGSFKLFRIM | -0.354 ± 0.76
74 | TDWGTLARMGLASLC | inactive
75 | TDWVW | 0.593 ± 0.2
76 | TDYQSVVDTVG | 0.019 ± 0.32
77 | TEASLMWRYWDGDPWQWSFD | inactive
78 | TEEWFFCPRLTLKFLKEVHK | 4.94 ± 0.092

Row | Substance | amyloid nucleation score
79 | TEGYNMCDWCSSSLVKSVRM | -0.223 ± 0.49
80 | TEILILMIGLIAGLYCEIRF | -0.231 ± 0.79
81 | TELHLTDFWLRIMRQLFRFS | 1.61 ± 0.52
82 | TFCSPR | 0.49 ± 0.5
83 | TFELNLLVPAPNCRFHDLRR | 1.46 ± 0.22
84 | TFFIMEIFDFC | 1.8 ± 0.15
85 | TFGRRATDNAASMPVSMRGR | 0.424 ± 0.64
86 | TFILFGRFEQTKVSVW | 3.67 ± 0.075
87 | TFLWLT | 2.33 ± 0.09
88 | TFLYREVPLRRYR | 0.135 ± 0.63
89 | TFRCVVRPLGMRSVLMAGSG | 0.852 ± 0.47
90 | TFVRVPFWFRKN | 9.788 ± 0.071
91 | TFWNFGLAVQTARGIWALSW | 6.57 ± 0.082
92 | TFYSLGLNISMFSLPGLAGY | 0.683 ± 0.35
93 | TFYSSWWSNSECYCS | 2.45 ± 0.1
94 | TGAIRGGSVQRVHSLINPRM | -0.414 ± 0.55
95 | TGCMSMLFKCAGMCQWWSGG | 6.71 ± 0.086
96 | TGDPTLLMAYSRSYVWRSER | 1.28 ± 0.3
97 | TGHKECVW | 0.762 ± 0.47
98 | TGHLEEMYKYDALYSSAKRA | 1 ± 0.48
99 | TGLGLIGLHSLVKVSRV | -0.255 ± 0.65
100 | TGLNLFRDSQTGELGGGYTR | 5.495 ± 0.049
101 | TGNVCQDEVNAIGRFP | -0.864 ± 0.38
102 | TGVCPR | -0.674 ± 0.5
103 | TGYLVWFG | 0.951 ± 0.3
104 | TGYVE | 0.293 ± 0.26

Row | Substance | amyloid nucleation score
105 | THIITWSVNFTKGWQCFESQ | 1.36 ± 0.38
106 | THRTGLDK | 0.319 ± 0.36
107 | THVDFLWIVNLGGSHI | 7.519 ± 0.041
108 | TIGFLFLVNWPSWNFLEEVF | inactive
109 | TIIKDIVIVDVFSSN | 1.53 ± 0.15
110 | TITNCP | inactive
111 | TIWGYARC | 2.67 ± 0.11
112 | TIYHSGRCLRKKGRELW | -0.139 ± 0.37
113 | TIYPDMETHLV | -0.075 ± 0.49
114 | TLAFVNNYDLRLELDRIEVP | inactive
115 | TLCGFNKGAAIGWCTWNSEK | 4.05 ± 0.13
116 | TLCMRLN | 1.64 ± 0.086
117 | TLETSNILFYGEDVKLSSQV | 0.078 ± 0.34
118 | TLFSLREGLFNGIWTVSLSW | -1.09 ± 1.1
119 | TLGKVGHYRRNNNMPVARFD | -0.11 ± 0.74
120 | TLGLLDHWSLREWDTTGWVE | 0.691 ± 0.37
121 | TLHFKFMVIRRN | -0.254 ± 0.63
122 | TLHKLFQMNLGRR | -0.738 ± 0.44
123 | TLHWSMR | 8.355 ± 0.034
124 | TLIGKFRTNNFRSMVDAESK | -0.59 ± 0.63
125 | TLLDNRRGCVMSWRGFLWMR | -0.363 ± 0.65
126 | TLLKHTSSTSIVYRRHALEI | 1.35 ± 0.29
127 | TLLLDQCDSRVDFWSNVP | -0.088 ± 1.1
128 | TLLSFRTVDNKIYKVLWVKT | 0.418 ± 0.48
129 | TLLWYCTIADRNSNVRMVAS | 0.966 ± 0.24
130 | TLNVRIAS | -0.124 ± 0.62

Row | Substance | amyloid nucleation score
131 | TLPWFGSFLRGVFKVPLIRG | 2.27 ± 0.1
132 | TLQKELSHVQETRYTW | -0.288 ± 1
133 | TLSHPWADLLVSETHMVYR | -0.381 ± 1.1
134 | TLSLSYALLSCVSVIKCPLV | -0.451 ± 0.79
135 | TLSSFL | -1.55 ± 0.41
136 | TLVCSKAFKYVGV | 0.131 ± 0.46
137 | TLVCWCLIFNVDKPFCVLML | inactive
138 | TLWEGVFKRSWLGVSGSKVE | 0.401 ± 0.23
139 | TLWVWVCCFQDWCSVSRGGR | 8.892 ± 0.03
140 | TMCMPAHMPYQHVSYLDILT | -0.161 ± 1.1
141 | TMFEGFRCLRR | 0.923 ± 0.81
142 | TMGTSSLVSAQLICRGTLAK | 0.172 ± 0.62
143 | TMKHLFRDGRSIRLLTCWVS | -0.931 ± 0.42
144 | TMLCYYINFRLIVYRSWYKQ | -0.788 ± 0.34
145 | TMLEFNCSYLNI | 2.98 ± 0.083
146 | TMLFTALDASHWG | 6.696 ± 0.05
147 | TMMSQVGMDR | 0.377 ± 0.34
148 | TMPFWKDFQT | 0.183 ± 1
149 | TMRYMVQMLRFEQSGLGQWV | 4.19 ± 0.076
150 | TMSVDCWLCNLRMEMFLELY | -1.54 ± 0.75
151 | TMWYIGKITRPSLRAGSGFT | -1.16 ± 0.48
152 | TNGYSVRLYKGSCVILIGL | 5.12 ± 0.092
153 | TNITGVIRVL | -0.211 ± 0.31
154 | TNLRAPEHHSHYCSRLRLD | -0.267 ± 0.35
155 | TNLYNDIGDRMFSSNWSTPV | -0.02 ± 1.1
156 | TNYKRCCV | -0.12 ± 0.32

Row | Substance | amyloid nucleation score
157 | TPIVGMLY | -0.477 ± 0.55
158 | TPLEYF | -0.19 ± 0.3
159 | TQCRFRTSRVDICKIVKPGS | 0.177 ± 0.65
160 | TQMTMEGAYPCCVVVP | 0.903 ± 0.74
161 | TQNTTYNAYMNLKE | -1.24 ± 1.1
162 | TRCGE | -0.134 ± 0.25
163 | TRGKRVPPDVLSSPKRIANV | 1.12 ± 0.46
164 | TRISGLGPDRDFSFRAASAK | -0.446 ± 0.76
165 | TRKILEMVFLLTAVNYNGVP | -1.12 ± 0.26
166 | TRMVCSFRCQESVPEP | 0.775 ± 0.8
167 | TRPLFTFRAMVDTRIHVFPM | 0.201 ± 0.8
168 | TRQLIYHWDKFSPHPAQFLT | 0.652 ± 0.64
169 | TRRARSDSDLMCRDRVSVDN | -0.249 ± 0.35
170 | TRSRKWHRGS | 1.14 ± 0.32
171 | TRYRLDACRGHAWYSVFFLM | -0.286 ± 0.49
172 | TRYTRGSALCTLDGKIYMMK | 1.29 ± 0.4
173 | TSDPCFFCNST | -0.381 ± 0.79
174 | TSECPVWNSFYVQNGSDLSI | 1.34 ± 0.14
175 | TSFSG | 0.56 ± 0.38
176 | TSGFRKHNVQRRLECTPGDW | 1.14 ± 0.31
